From publication PMC6848426 (Rice, 2019)

Target: T1, GST-OsSGT1 (rice (Oryza sativa L.), UniProt Q0JL44 1-367)
T1 sequence (looked up): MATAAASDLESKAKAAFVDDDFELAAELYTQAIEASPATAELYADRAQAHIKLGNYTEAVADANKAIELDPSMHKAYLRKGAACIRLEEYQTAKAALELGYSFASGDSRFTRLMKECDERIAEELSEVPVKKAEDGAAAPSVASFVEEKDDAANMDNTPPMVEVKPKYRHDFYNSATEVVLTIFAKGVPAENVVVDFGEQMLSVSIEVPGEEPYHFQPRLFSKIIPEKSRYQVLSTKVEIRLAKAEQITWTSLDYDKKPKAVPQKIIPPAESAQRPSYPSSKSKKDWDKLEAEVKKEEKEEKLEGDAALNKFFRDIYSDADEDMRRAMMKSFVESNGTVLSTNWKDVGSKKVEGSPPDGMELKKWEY
Assay: pull-down; GST-, GST-fusion-coupled beads used to capture the His tag or His-OsSAPK9; detection with HRP-conjugated anti-His antibody
Conditions: both partners purified

B1: His-OsSAPK9 (natural protein, rice (Oryza sativa L.), UniProt Q75V57 1-361, looked up)
chain: MERAAAGPLGMEMPIMHDGDRYELVKEIGSGNFGVARLMRNRASGDLVAVKYIDRGEKIDENVQREIINHRSLRHPNIIRFKEVILTPTHLAIVMEYASGGELFERICSAGRFSEDEARFFFQQLISGVSYCHSMQVCHRDLKLENTLLDGSTAPRLKICDFGYSKSSVLHSQPKSTVGTPAYIAPEVLLKKEYDGKIADVWSCGVTLYVMLVGAYPFEDPEDPKNFRKTIQKILGVQYSIPDYVHISPECRDLITRIFVGNPASRITMPEIKNHPWFMKNIPADLMDDGMVSNQYEEPDQPMQNMNEIMQILAEATIPAAGTSGINQFLTDSLDLDDDMEDMDSDLDLDIESSGEIVYAM
notes: also called histidine-tagged OsSAPK9 protein
binding result: binds
